{
  "source": "IntAct's records for PubMed 37582800",
  "parents": {"B1": {"name": "Protein MalY (Escherichia coli (strain K12)), P23256 (parent)", "chain": "MFDFSKVVDRHGTWCTQWDYVADRFGTADLLPFTISDMDFATAPCIIEALNQRLMHGVFGYSRWKNDEFLAAIAHWFSTQHYTAIDSQTVVYGPSVIYMVSELIRQWSETGEGVVIHTPAYDAFYKAIEGNQRTVMPVALEKQADGWFCDMGKLEAVLAKPECKIMLLCSPQNPTGKVWTCDELEIMADLCERHGVRVISDEIHMDMVWGEQPHIPWSNVARGDWALLTSGSKSFNIPALTGAYGIIENSSSRDAYLSALKGRDGLSSPSVLALTAHIAAYQQGAPWLDALRIYLKDNLTYIADKMNAAFPELNWQIPQSTYLAWLDLRPLNIDDNALQKALIEQEKVAIMPGYTYGEEGRGFVRLNAGCPRSKLEKGVAGLINAIRAVR", "partner": "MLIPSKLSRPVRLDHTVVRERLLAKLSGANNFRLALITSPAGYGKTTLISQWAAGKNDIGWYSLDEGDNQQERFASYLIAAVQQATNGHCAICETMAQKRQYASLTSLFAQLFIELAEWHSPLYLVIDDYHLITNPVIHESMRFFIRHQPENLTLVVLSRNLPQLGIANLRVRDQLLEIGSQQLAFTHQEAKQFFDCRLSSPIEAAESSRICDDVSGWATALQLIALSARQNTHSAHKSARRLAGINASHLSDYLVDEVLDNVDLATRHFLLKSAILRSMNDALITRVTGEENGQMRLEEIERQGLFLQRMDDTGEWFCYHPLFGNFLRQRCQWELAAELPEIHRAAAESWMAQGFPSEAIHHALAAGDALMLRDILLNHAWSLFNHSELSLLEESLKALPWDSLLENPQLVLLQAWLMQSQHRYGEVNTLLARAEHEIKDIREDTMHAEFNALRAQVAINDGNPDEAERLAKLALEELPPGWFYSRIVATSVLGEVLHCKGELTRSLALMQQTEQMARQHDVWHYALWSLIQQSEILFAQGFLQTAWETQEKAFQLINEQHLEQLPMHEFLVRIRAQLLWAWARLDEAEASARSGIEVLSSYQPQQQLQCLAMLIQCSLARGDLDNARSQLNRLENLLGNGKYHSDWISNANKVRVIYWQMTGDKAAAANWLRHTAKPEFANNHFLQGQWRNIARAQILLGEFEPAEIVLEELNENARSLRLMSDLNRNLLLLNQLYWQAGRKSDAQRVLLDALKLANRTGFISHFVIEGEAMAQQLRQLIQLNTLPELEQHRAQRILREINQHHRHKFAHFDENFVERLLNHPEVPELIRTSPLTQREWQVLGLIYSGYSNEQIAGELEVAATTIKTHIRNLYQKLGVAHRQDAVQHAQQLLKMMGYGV"}, "B2": {"name": "HTH-type transcriptional regulator MalT (Escherichia coli (strain K12)), P06993 (parent)", "chain": "B1 partner", "partner": "B1 chain"}},
  "data": [
    {"variants_of": "B1", "conditions": "with malt_ecoli malT", "values": [
      {"variant": "MFDFSKVVDRHGTWCTQWDYVADRFGTADLLPFTISDMDFATAPCIIEALNQRLMHGVFGYSRWKNDEFLAAIAHWFSTQHYTAIDSQTVVYGPSVIYMVSELIRQWSETGEGVVIHTPAYDAFYKAIEGNQRTVMPVALEKQADGWFCDMGKLEAVLAKPECKIMLLCSPQNPTGKVWTCAELAIMADLCERHGVRVISDEIHMDMVWGEQPHIPWANVARGDWALLTSGSKSFNIPALTGAYGIIENSSSRDAYLSALKGRDGLSSPSVLALTAHIAAYQQGAPWLDALRIYLKDNLTYIADKMNAAFPELNWQIPQSTYLAWLDLRPLNIDDNALQKALIEQEKVAIMPGYTYGEEGRGFVRLNAGCPRSKLEKGVAGLINAIRAVR", "note": "[D182A;E185A;S218A]", "effect of a mutation on the interaction": "with no effect"}
    ]},
    {"variants_of": "B2", "conditions": "with maly_ecoli malY", "values": [
      {"variant": "N169A", "effect of a mutation on the interaction": "with no effect"},
      {"variant": "E140A", "effect of a mutation on the interaction": "with no effect"},
      {"variant": "R143A;R173A", "effect of a mutation on the interaction": "disrupting interaction strength"},
      {"variant": "R173A", "effect of a mutation on the interaction": "disrupting interaction strength"},
      {"variant": "R143A", "effect of a mutation on the interaction": "disrupting interaction strength"}
    ]}
  ]
}
